In this assay the target is T1, Tsa1^WT-HA (peroxiredoxin Tsa1, single C-terminal HA tag at the endogenous locus) (S. cerevisiae, UniProt P34760 1-196).
T1 sequence (looked up): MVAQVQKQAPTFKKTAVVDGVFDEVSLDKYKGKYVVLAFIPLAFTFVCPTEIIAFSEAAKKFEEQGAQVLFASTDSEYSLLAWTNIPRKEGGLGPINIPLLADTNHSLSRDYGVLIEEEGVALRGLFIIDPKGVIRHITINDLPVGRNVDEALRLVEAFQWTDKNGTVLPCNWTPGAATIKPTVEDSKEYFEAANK
The assay is described as follows: in vitro thioredoxin reaction, non-reducing SDS-PAGE with immunoblot. In general terms: A western blot detects proteins with antibodies after separation by electrophoresis.

B1: recombinant Trx1-HIS (enzyme, S. cerevisiae, UniProt P22217 1-103, looked up)
chain: MVTQFKTASEFDSAIAQDKLVVVDFYATWCGPCKMIAPMIEKFSEQYPQADFYKLDVDELGDVAQKNEVSAMPTLLLFKNGKEVAKVVGANPAAIKQAIAANA
Turning to B1, the binding result was “binds”.
